Consider 1 molecule from PMC4855518 (Nature, 2016).

This test deals with G. thermodenitrificans SecYE (Geobacillus thermodenitrificans NG80-2, UniProt A4IJK8;A4IJH4). In words: SEC.

B1: nanobody AYC08 (VHH)
VHH: QVQLVETGGGLVQPGGSLRLSCGASGSIFNMYAMGWYRQAPGKQREVVARIATDDSTMYPDSVKGRFTISRDNAKNTVYLQMNSLKPEDTAVYYCYYQRTVMSQPYWGQGTQVTVSS
As for B1, the binding result was “binds”.
